Assay results published in paper PMC12416549 (2024).
Positions count from the first letter of the chain named. Names and notes keep the numbering of the source. Values belong to the binder of their own block, whether it stands above or below them.

Target: T1, TNFR1 (Homo sapiens, UniProt P19438)
T1 chain: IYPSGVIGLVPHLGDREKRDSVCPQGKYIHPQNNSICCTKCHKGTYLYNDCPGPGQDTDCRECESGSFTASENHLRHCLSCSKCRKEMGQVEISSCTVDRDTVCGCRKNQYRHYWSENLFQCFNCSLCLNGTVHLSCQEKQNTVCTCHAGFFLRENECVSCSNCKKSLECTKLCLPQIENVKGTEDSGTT
Assay: yeast display SC50

apparent Kd (screen): 1.16 nM
B1: I21L (designed binder)
chain: SMEEEVEKAAKEYEKKKKEALEKHLEKLKAKDKEAAERFLKELEEAAKEYAKDEAKTMSEEEAKRRAKKYKEKVLLSELSEEEQKEIKEAEEKLVRTILKYVEEAAK

apparent Kd (screen): 10.4 nM
B2: A55Y (designed binder)
chain: B1 chain with L21I, A55Y

apparent Kd (screen): 1.69 nM
B3: H24Y (designed binder)
chain: B1 chain with L21I, H24Y

apparent Kd (screen): 4.39 nM
B4: A63H (designed binder)
chain: B1 chain with L21I, A63H

apparent Kd (screen): 1.4 nM
B5: S80D (designed binder)
chain: B1 chain with L21I, S80D

apparent Kd (screen): 4.39 nM
B6: Y50P (designed binder)
chain: B1 chain with L21I, Y50P

apparent Kd (screen): 0.718 nM
B7: E103T (designed binder)
chain: B1 chain with L21I, E103T

apparent Kd (screen): 0.869 nM
B8: K41A (designed binder)
chain: B1 chain with L21I, K41A

apparent Kd (screen): 2.25 nM
B9: E89Y (designed binder)
chain: B1 chain with L21I, E89Y

apparent Kd (screen): 1.4 nM
B10: E4H (designed binder)
chain: B1 chain with E4H, L21I

apparent Kd (screen): 1.69 nM
B11: K18L (designed binder)
chain: B1 chain with K18L, L21I

apparent Kd (screen): 0.446 nM
B12: L40A (designed binder)
chain: B1 chain with L21I, L40A

apparent Kd (screen): 0.539 nM
B13: E22A (designed binder)
chain: B1 chain with L21I, E22A

apparent Kd (screen): 0.718 nM
B14: K31A (designed binder)
chain: B1 chain with L21I, K31A

apparent Kd (screen): 12.5 nM
B15: Q84G (designed binder)
chain: B1 chain with L21I, Q84G

apparent Kd (screen): 0.539 nM
B16: L28Q (designed binder)
chain: B1 chain with L21I, L28Q

apparent Kd (screen): 1.69 nM
B17: L75H (designed binder)
chain: B1 chain with L21I, L75H

apparent Kd (screen): 0.956 nM
B18: E62W (designed binder)
chain: B1 chain with L21I, E62W

apparent Kd (screen): 1.54 nM
B19: S59T (designed binder)
chain: B1 chain with L21I, S59T

apparent Kd (screen): 10.4 nM
B20: V95M (designed binder)
chain: B1 chain with L21I, V95M

apparent Kd (screen): 0.49 nM
B21: E78H (designed binder)
chain: B1 chain with L21I, E78H

apparent Kd (screen): 2.25 nM
B22: M58V (designed binder)
chain: B1 chain with L21I, M58V

apparent Kd (screen): 1.4 nM
B23: E86Y (designed binder)
chain: B1 chain with L21I, E86Y

apparent Kd (screen): 0.446 nM
B24: A10T (designed binder)
chain: B1 chain with A10T, L21I

apparent Kd (screen): 2.48 nM
B25: K41P (designed binder)
chain: B1 chain with L21I, K41P

apparent Kd (screen): 5.84 nM
B26: I87F (designed binder)
chain: B1 chain with L21I, I87F

apparent Kd (screen): 0.446 nM
B27: E81V (designed binder)
chain: B1 chain with L21I, E81V

apparent Kd (screen): 7.07 nM
B28: S59F (designed binder)
chain: B1 chain with L21I, S59F

apparent Kd (screen): 0.446 nM
B29: K17F (designed binder)
chain: B1 chain with K17F, L21I

apparent Kd (screen): 0.446 nM
B30: E4T (designed binder)
chain: B1 chain with E4T, L21I

apparent Kd (screen): 1.86 nM
B31: L28I (designed binder)
chain: B1 chain with L21I, L28I

apparent Kd (screen): 0.869 nM
B32: K33Q (designed binder)
chain: B1 chain with L21I, K33Q

apparent Kd (screen): 0.446 nM
B33: A9M (designed binder)
chain: B1 chain with A9M, L21I

apparent Kd (screen): 2.48 nM
B34: S80G (designed binder)
chain: B1 chain with L21I, S80G

apparent Kd (screen): 0.79 nM
B35: A106S (designed binder)
chain: B1 chain with L21I, A106S

apparent Kd (screen): 26.9 nM
B36: A90P (designed binder)
chain: B1 chain with L21I, A90P

apparent Kd (screen): 0.718 nM
B37: K8N (designed binder)
chain: B1 chain with K8N, L21I

apparent Kd (screen): 7.07 nM
B38: E3C (designed binder)
chain: B1 chain with E3C, L21I

apparent Kd (screen): 0.49 nM
B39: V6I (designed binder)
chain: B1 chain with V6I, L21I

apparent Kd (screen): 0.718 nM
B40: Y70E (designed binder)
chain: B1 chain with L21I, Y70E

apparent Kd (screen): 0.446 nM
B41: A36V (designed binder)
chain: B1 chain with L21I, A36V

apparent Kd (screen): 2.73 nM
B42: E62C (designed binder)
chain: B1 chain with L21I, E62C

apparent Kd (screen): 0.49 nM
B43: I21W (designed binder)
chain: B1 chain with L21W

apparent Kd (screen): 0.446 nM
B44: E60L (designed binder)
chain: B1 chain with L21I, E60L

apparent Kd (screen): 0.49 nM
B45: S77A (designed binder)
chain: B1 chain with L21I, S77A

apparent Kd (screen): 0.79 nM
B46: E62Q (designed binder)
chain: B1 chain with L21I, E62Q

apparent Kd (screen): 13.8 nM
B47: D32Y (designed binder)
chain: B1 chain with L21I, D32Y

apparent Kd (screen): 0.718 nM
B48: R96K (designed binder)
chain: B1 chain with L21I, R96K

apparent Kd (screen): 6.43 nM
B49: L43D (designed binder)
chain: B1 chain with L21I, L43D

apparent Kd (screen): 0.446 nM
B50: K52E (designed binder)
chain: B1 chain with L21I, K52E

apparent Kd (screen): 2.48 nM
B51: D53F (designed binder)
chain: B1 chain with L21I, D53F

apparent Kd (screen): 0.593 nM
B52: K69E (designed binder)
chain: B1 chain with L21I, K69E

apparent Kd (screen): 0.956 nM
B53: K52H (designed binder)
chain: B1 chain with L21I, K52H

apparent Kd (screen): 10.4 nM
B54: E42A (designed binder)
chain: B1 chain with L21I, E42A

apparent Kd (screen): 0.79 nM
B55: K31W (designed binder)
chain: B1 chain with L21I, K31W

apparent Kd (screen): 3 nM
B56: E92H (designed binder)
chain: B1 chain with L21I, E92H

apparent Kd (screen): 2.48 nM
B57: E3D (designed binder)
chain: B1 chain with E3D, L21I

apparent Kd (screen): 0.49 nM
B58: E78I (designed binder)
chain: B1 chain with L21I, E78I

apparent Kd (screen): 0.446 nM
B59: Y70K (designed binder)
chain: B1 chain with L21I, Y70K
